The target in this assay is G protein of RSV A/Long (ATCC Cat. No. VR-26), on virus (Respiratory syncytial virus A/Long) (UniProt P20895). Description: cell-based or functional assay.
G protein of RSV A/Long (ATCC Cat. No. VR-26), on virus (Respiratory syncytial virus A/Long), sequence (P20895 whole entry): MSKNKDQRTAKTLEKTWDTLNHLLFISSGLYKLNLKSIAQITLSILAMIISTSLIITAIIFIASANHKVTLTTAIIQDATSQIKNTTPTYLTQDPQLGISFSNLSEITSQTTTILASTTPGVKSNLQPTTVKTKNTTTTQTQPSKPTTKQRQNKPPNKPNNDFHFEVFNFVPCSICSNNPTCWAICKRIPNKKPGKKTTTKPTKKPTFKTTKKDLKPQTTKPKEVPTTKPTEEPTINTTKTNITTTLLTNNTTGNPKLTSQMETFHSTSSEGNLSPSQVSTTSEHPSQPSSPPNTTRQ

B1: CR9505 (an antibody based on 131-2G, comprising the heavy and light chain variable region of 131-2G, as disclosed in WO 2009/055711) (antibody, from another filing, V domains shown)
VH: EVQLQQSGPELVKPGTSVKISCKASGYSFTGFTMNWVKQSHGKNLEWFGLINPFNGNTGYNQKFKGKATLTVDKSSSTAFMELLSLTSEDSAVYYCARSGKSYDYEAWFTYWGQGTLVTVSA
VL: DIVMTQTTLSLPVSLGNQASISCRSSQTIVHTNGNTYLEWYLQKPGQSPKLLIYKVSNRFSGVPDRFSGSGSGTDFILNISRVEAEDLGVYYCFQGSHVPFTFGSGTKLEIKR
As to B1, the Neutralization IC50, plaque reduction assay, RSV A/Long was determined as 18 ng/mL.
